Here are results for 20 substances from article PMC4169507.

The first assay has as its target fibronectin (UniProt P02751). Kind of assay: SPR.
Conditions: not given
On to “AggBdsA (AAF/I minor subunit AggB complemented with the donor strand of AggA) (domain or fragment)”, for which the Kd (as a rule, a measure of binding affinity in units of concentration) was 100 µM.

For “AggAdsA triple mutant (Lys73Ala, Lys76Ala, and Lys78Ala) (domain or fragment)”, the Kd is above 200 µM.

The target in another assay is fibronectin (UniProt P02751). Kind of assay: bacterial adherence to fibronectin-coated 96-well plates (colony counting). The following applies: plates coated with 25 µg/ml of fibronectin; in the presence of arabinose; parent: 100; read off a plot.
In the case of “AafA, major subunit of AAF/II, on wild type EAEC 042 L132A”, the percent of parent (% of binding to Fn) is 79.

Turning to “AafA, major subunit of AAF/II, on wild type EAEC 042 R23A”, the percent of parent (% of binding to Fn) turned out to be 12.

Regarding “AafA, major subunit of AAF/II, on wild type EAEC 042 K66A”, the percent of parent (% of binding to Fn) was 0.

Regarding “AafA, major subunit of AAF/II, on wild type EAEC 042 E57A”, the percent of parent (% of binding to Fn) amounted to 76.

Consider “AafA, major subunit of AAF/II, on wild type EAEC 042 G69A”, for which the percent of parent (% of binding to Fn) was determined as 81.

For the substance “AafA, major subunit of AAF/II, on wild type EAEC 042 K72A”, the percent of parent (% of binding to Fn) was 6.

Consider “AafA, major subunit of AAF/II, on wild type EAEC 042 R40A”, for which the percent of parent (% of binding to Fn) worked out at 2.

Turning to “AafA, major subunit of AAF/II, on wild type EAEC 042 E131A”, the percent of parent (% of binding to Fn) is 75.

Take “AafA, major subunit of AAF/II, on wild type EAEC 042 N88A”: the percent of parent (% of binding to Fn) came to 70.

Consider “AafA, major subunit of AAF/II, on wild type EAEC 042 S73A”, for which the percent of parent (% of binding to Fn) was 80.

Take “AafA, major subunit of AAF/II, on wild type EAEC 042 K66R”: the percent of parent (% of binding to Fn) came to 51.

As to “AafA, major subunit of AAF/II, on wild type EAEC 042 S30A”, the percent of parent (% of binding to Fn) came out at 65.

For the substance “AafA, major subunit of AAF/II, on wild type EAEC 042 T77A”, the percent of parent (% of binding to Fn) was found to be 67.

With “AafA, major subunit of AAF/II, on wild type EAEC 042 T114A”, the percent of parent (% of binding to Fn) was 71.

“AafA, major subunit of AAF/II, on wild type EAEC 042 K72R”: the percent of parent (% of binding to Fn) is 100.

As for “AafA, major subunit of AAF/II, on wild type EAEC 042 D14A”, the percent of parent (% of binding to Fn) was 99.

Take “AafA, major subunit of AAF/II, on wild type EAEC 042 R44A”: the percent of parent (% of binding to Fn) turned out to be 6.

Take “AafA, major subunit of AAF/II, on wild type EAEC 042 T38L”: the percent of parent (% of binding to Fn) came to 72.
